Data from US20240309115A1 (MERUS N V, published 2024).

T1: LAG-3 on PD-1 and LAG-3 expressing Jurkat T cells (effector cells of the PD-1/LAG-3 reporter assay) (UniProt P18627 23-525)
T1 sequence (looked up): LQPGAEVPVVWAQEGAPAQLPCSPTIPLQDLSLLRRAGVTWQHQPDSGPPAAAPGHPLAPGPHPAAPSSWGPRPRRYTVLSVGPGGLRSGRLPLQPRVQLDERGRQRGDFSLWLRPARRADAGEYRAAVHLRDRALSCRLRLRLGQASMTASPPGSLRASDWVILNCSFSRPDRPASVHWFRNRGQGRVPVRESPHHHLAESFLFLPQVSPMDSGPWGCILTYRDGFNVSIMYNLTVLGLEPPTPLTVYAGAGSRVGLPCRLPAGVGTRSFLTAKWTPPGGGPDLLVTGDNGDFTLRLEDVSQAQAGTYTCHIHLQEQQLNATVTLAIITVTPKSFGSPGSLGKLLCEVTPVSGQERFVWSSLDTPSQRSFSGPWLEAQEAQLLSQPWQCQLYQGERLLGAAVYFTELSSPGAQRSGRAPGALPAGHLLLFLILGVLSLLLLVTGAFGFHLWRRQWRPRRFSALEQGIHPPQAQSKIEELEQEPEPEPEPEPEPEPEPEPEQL

T2: human LAG-3 (293FF cell line stably transfected with human LAG-3) (human, UniProt P18627 23-525)
T2 construct: whole, on cells; also called huLAG-3; 293FF-huLAG-3
T2 sequence (looked up): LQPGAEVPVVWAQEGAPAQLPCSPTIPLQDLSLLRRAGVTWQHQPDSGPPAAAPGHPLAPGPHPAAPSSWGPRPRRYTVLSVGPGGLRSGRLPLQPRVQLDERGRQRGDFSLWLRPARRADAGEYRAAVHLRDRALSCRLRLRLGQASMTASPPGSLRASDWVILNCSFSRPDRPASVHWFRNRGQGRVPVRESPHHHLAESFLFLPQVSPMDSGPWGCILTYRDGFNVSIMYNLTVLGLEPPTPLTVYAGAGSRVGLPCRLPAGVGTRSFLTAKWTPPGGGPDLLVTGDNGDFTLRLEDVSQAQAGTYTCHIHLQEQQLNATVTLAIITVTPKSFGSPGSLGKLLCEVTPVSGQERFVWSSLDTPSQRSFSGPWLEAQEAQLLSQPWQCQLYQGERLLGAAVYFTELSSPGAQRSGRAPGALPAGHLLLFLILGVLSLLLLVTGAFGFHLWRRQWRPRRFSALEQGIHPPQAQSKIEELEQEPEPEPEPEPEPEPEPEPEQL

T3: rhesus LAG-3 (293FF cell line stably transfected with rhesus LAG-3) (rhesus, UniProt A0A5F8A874 23-533)
T3 construct: whole, on cells; also called reLAG-3; 293FF-reLAG-3
T3 sequence: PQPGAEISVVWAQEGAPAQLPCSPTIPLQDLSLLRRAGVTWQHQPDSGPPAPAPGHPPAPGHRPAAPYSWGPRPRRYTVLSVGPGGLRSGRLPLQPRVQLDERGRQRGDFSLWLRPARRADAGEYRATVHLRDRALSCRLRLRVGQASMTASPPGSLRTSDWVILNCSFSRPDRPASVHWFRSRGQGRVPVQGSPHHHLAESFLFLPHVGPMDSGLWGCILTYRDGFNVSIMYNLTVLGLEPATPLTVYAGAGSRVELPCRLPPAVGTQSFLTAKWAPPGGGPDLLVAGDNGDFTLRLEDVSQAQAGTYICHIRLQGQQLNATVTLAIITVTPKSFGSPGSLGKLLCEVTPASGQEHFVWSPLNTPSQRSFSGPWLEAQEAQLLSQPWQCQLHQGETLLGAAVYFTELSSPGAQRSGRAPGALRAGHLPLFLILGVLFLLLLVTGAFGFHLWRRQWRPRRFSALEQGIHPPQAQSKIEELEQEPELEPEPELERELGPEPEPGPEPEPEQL


Columns and labels:
[1] = target: T1, LAG-3 on PD-1 and LAG-3 expressing …; experiment: cell-based or functional assay
[2] = target: T4, PD-L1 on PD-L1 expressing Raji cells (target cells of the PD-1/LAG-3 reporter assay) (UniProt Q9NZQ7 19-290, limits assumed); experiment: cell-based or functional assay
T4 sequence (Q9NZQ7 19-290 limits assumed): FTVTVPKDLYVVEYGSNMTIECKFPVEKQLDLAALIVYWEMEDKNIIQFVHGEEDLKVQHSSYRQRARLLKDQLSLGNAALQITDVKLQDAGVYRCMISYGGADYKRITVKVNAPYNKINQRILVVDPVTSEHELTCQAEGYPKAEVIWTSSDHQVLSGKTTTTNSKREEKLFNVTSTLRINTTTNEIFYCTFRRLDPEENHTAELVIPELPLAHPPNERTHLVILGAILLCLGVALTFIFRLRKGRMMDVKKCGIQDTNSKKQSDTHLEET

[3] = target: T2, human LAG-3 (293FF cell line stably …); experiment: FACS on 293FF cells expressing human LAG-3
[4] = target: T5, human PD-L1 (CHO-K1 cell line stably transfected with human PD-L1) (human, UniProt Q9NZQ7 19-290); experiment: FACS on CHO-K1 cells expressing human PD-L1
T5 construct: whole, on cells; also called huPD-L1; CHO-K1-huPD-L1
T5 sequence (Q9NZQ7 19-290): as the sequence (Q9NZQ7 19-290 limits assumed) above

[5] = target: T6, rhesus PD-L1 (CHO-K1 cell line stably transfected with rhesus PD-L1) (rhesus, UniProt F6VEW6 19-290); experiment: FACS on CHO-K1 cells stably expressing rhesus PD-L1, goat-anti-human PE secondary, MFI
T6 construct: whole, on cells

[6] = target: T7, cynomolgus monkey LAG-3-His (Sino Biological, Cat nr. 90841-C08H) (cynomolgus monkey); experiment: SPR, BIAcore T200, antibody captured by anti-huIgG Fcγ on a CM5 chip, antigen in solution, 1:1 model
T7 construct: also called cynomolgus LAG-3

[7] = target: T3, rhesus LAG-3 (293FF cell line stably …); experiment: FACS on 293FF cells stably expressing rhesus LAG-3, goat-anti-human PE secondary, MFI
[8] = target: T1, LAG-3 on PD-1 and LAG-3 expressing …; experiment: cell-based or functional assay; remark: listed apart in the source
[9] = target: T4, PD-L1 on PD-L1 expressing Raji cells …; experiment: cell-based or functional assay; remark: listed apart in the source
[10] = target: T2, human LAG-3 (293FF cell line stably …); experiment: FACS on 293FF-huLAG-3 cells
[11] = target: T3, rhesus LAG-3 (293FF cell line stably …); experiment: FACS on 293FF-reLAG-3 cells
[12] = target: T5, human PD-L1 (CHO-K1 cell line stably …); experiment: FACS on CHO-K1-huPD-L1 cells

Binder | AUC compared to control, PD-1/LAG-3 reporter assay (luciferase) [1] | AUC compared to control, PD-1/LAG-3 reporter assay (luciferase) [2] | EC50 [3] | EC50 [4] | also measured
SEQ ID NO: 16×SEQ ID NO: 23 bispecific antibody (bispecific antibody, Fc-silenced IgG1, monovalent for LAG-3 and for PD-L1; also called PB63; not shown: IgG1 hinge) heavy (part 1 of 2) 1: QVQLVQSGAEVKKPGASVKVSCKASGYTFTSYGISWVRQAPGQGLEWMGWISAYSGNTNYAQKLQGRVTMTTDTSTSTAYMELRSLRSDDTAVYYCARGSILAAQMWGDIWGQGTLVTVSSASTKGPSVFPLAPSSKSTSGGTAALGCLVKDYFPEPVTVSWNSGALTSGVHTFPAVLQSSGLYSLSSVVTVPSSSLGTQTYICNVNHKPSNTKVDKRV heavy (part 2 of 2) 1: not shown heavy (part 1 of 2) 2: not shown heavy (part 2 of 2) 2: not shown light: not shown | 58.3 relative to AUC of positive control | 58.3 relative to AUC of positive control | 24.1 nM | 1.01 nM | 
bivalent monospecific parental LAG-3 antibody SEQ ID NO: 16 (antibody, IgG1, IgG1; not shown: IgG1 hinge) heavy (part 1 of 2): QVQLVQSGAEVKKPGASVKVSCKASGYTFTSYGISWVRQAPGQGLEWMGWISAYSGNTNYAQKLQGRVTMTTDTSTSTAYMELRSLRSDDTAVYYCARGSILAAQMWGDIWGQGTLVTVSSASTKGPSVFPLAPSSKSTSGGTAALGCLVKDYFPEPVTVSWNSGALTSGVHTFPAVLQSSGLYSLSSVVTVPSSSLGTQTYICNVNHKPSNTKVDKRV heavy (part 2 of 2): not shown light: not shown |  |  | 13.3 nM |  | 
SEQ ID NO: 1×SEQ ID NO: 23 bispecific antibody (bispecific antibody, Fc-silenced IgG1, monovalent for LAG-3 and for PD-L1; also called PB3; not shown: IgG1 hinge) heavy (part 1 of 2) 1: QVQLQESGPGLVRPSETLSLTCTVSGGSISSYSWSWIRQPPGKGLEWIGYIDYSGSTNYNPSLKSRVTISVDTSKTQFSLKLSSVSAADTAVYYCAKDLLYKWNYVEGFDIWGQGTTVTVSSASTKGPSVFPLAPSSKSTSGGTAALGCLVKDYFPEPVTVSWNSGALTSGVHTFPAVLQSSGLYSLSSVVTVPSSSLGTQTYICNVNHKPSNTKVDKRV heavy (part 2 of 2) 1: not shown heavy (part 1 of 2) 2: not shown heavy (part 2 of 2) 2: not shown light: not shown | 54.8 relative to AUC of positive control | 54.8 relative to AUC of positive control | 52.1 nM | 0.74 nM | EC50 (read off the curve) [5]: ~0.05 µg/mL
relatlimab analog (antibody, V domains shown, also called analog of anti-LAG-3 antibody relatlimab) VH: QVQLQQWGAGLLKPSETLSLTCAVYGGSFSDYYWNWIRQPPGKGLEWIGEINHRGSTNSNPSLKSRVTLSLDTSKNQFSLKLRSVTAADTAVYYCAFGYSDYEYNWFDPWGQGTLVTVSS VL: EIVLTQSPATLSLSPGERATLSCRASQSISSYLAWYQQKPGQAPRLLIYDASNRATGIPARFSGSGSGTDFTLTISSLEPEDFAVYYCQQRSNWPLTFGQGTNLEIK |  |  |  |  | Kd [6]: 11.5 nM
SEQ ID NO: 15×SEQ ID NO: 23 bispecific antibody (bispecific antibody, Fc-silenced IgG1, monovalent for LAG-3 and for PD-L1; also called PB59; not shown: IgG1 hinge) heavy (part 1 of 2) 1: QVQLVQSGAEVKKPGASVKVSCKASGYTFTSYGISWVRQAPGQGLEWMGWISAYSGNTNYAQKLQGRVTMTTDTSTSTAYMELRSLRSDDTAVYYCARDGSGWDDFDYWGQGTLVTVSSASTKGPSVFPLAPSSKSTSGGTAALGCLVKDYFPEPVTVSWNSGALTSGVHTFPAVLQSSGLYSLSSVVTVPSSSLGTQTYICNVNHKPSNTKVDKRV heavy (part 2 of 2) 1: not shown heavy (part 1 of 2) 2: not shown heavy (part 2 of 2) 2: not shown light: not shown | 71 relative to AUC of positive control | 71 relative to AUC of positive control | 113 nM | 2.41 nM | 
SEQ ID NO: 5×SEQ ID NO: 23 bispecific antibody (bispecific antibody, Fc-silenced IgG1, monovalent for LAG-3 and for PD-L1; also called PB19; not shown: IgG1 hinge) heavy (part 1 of 2) 1: QVQLQESGPGLVKPSETLSLTCTVSDDSISDYYWSWIRQPPGKGLEWIGYIYYSGNTKYNPSLKNRVTISVDTSKSQFSLKLTSVTAADTAVYYCARIPLTGEFDYWAQGTLVTVSSASTKGPSVFPLAPSSKSTSGGTAALGCLVKDYFPEPVTVSWNSGALTSGVHTFPAVLQSSGLYSLSSVVTVPSSSLGTQTYICNVNHKPSNTKVDKRV heavy (part 2 of 2) 1: not shown heavy (part 1 of 2) 2: not shown heavy (part 2 of 2) 2: not shown light: not shown | 83.9 relative to AUC of positive control | 83.9 relative to AUC of positive control | 8.64 nM | 1.21 nM | 
SEQ ID NO: 52×SEQ ID NO: 20 bispecific antibody (bispecific antibody, IgG1; also called PB90; not shown: IgG1 hinge) heavy (part 1 of 2) 1: QVQLQESGPGLVKPSETLSLTCTVSDDSISDYYWSWIRQPPGKGLEWIGYIYYSGNTKYNPSLKNRVTISVDTSKSQFSLKLTSVTAADTAVYYCARIPLTGDFDFWAQGTLVTVSSASTKGPSVFPLAPSSKSTSGGTAALGCLVKDYFPEPVTVSWNSGALTSGVHTFPAVLQSSGLYSLSSVVTVPSSSLGTQTYICNVNHKPSNTKVDKRV heavy (part 2 of 2) 1: not shown heavy (part 1 of 2) 2: not shown heavy (part 2 of 2) 2: not shown light: not shown |  |  |  |  | AUC (% of control), PD-1/LAG-3 reporter assay [8]: 96.9 % of control; EC50, PD-1/LAG-3 reporter assay [8]: 1.15 µg/mL; AUC (% of control), PD-1/LAG-3 reporter assay [9]: 96.9 % of control; EC50, PD-1/LAG-3 reporter assay [9]: 1.15 µg/mL; EC50 [10]: 1.25 µg/mL; EC50 [11]: 3.22 µg/mL; EC50 [12]: 0.009 µg/mL

Further lines, with some results ahead:

AUC compared to control, PD-1/LAG-3 reporter assay (luciferase) [1] | AUC compared to control, PD-1/LAG-3 reporter assay (luciferase) [2] | EC50 [3] | EC50 [4] | Binder | also measured
 |  | 0.54 nM |  | bivalent monospecific parental LAG-3 antibody SEQ ID NO: 1 (antibody, IgG1, IgG1; not shown: IgG1 hinge) heavy (part 1 of 2): QVQLQESGPGLVRPSETLSLTCTVSGGSISSYSWSWIRQPPGKGLEWIGYIDYSGSTNYNPSLKSRVTISVDTSKTQFSLKLSSVSAADTAVYYCAKDLLYKWNYVEGFDIWGQGTTVTVSSASTKGPSVFPLAPSSKSTSGGTAALGCLVKDYFPEPVTVSWNSGALTSGVHTFPAVLQSSGLYSLSSVVTVPSSSLGTQTYICNVNHKPSNTKVDKRV heavy (part 2 of 2): not shown light: not shown | 
 |  | 0.94 nM |  | bivalent monospecific parental LAG-3 antibody SEQ ID NO: 15 (antibody, IgG1, IgG1; not shown: IgG1 hinge) heavy (part 1 of 2): QVQLVQSGAEVKKPGASVKVSCKASGYTFTSYGISWVRQAPGQGLEWMGWISAYSGNTNYAQKLQGRVTMTTDTSTSTAYMELRSLRSDDTAVYYCARDGSGWDDFDYWGQGTLVTVSSASTKGPSVFPLAPSSKSTSGGTAALGCLVKDYFPEPVTVSWNSGALTSGVHTFPAVLQSSGLYSLSSVVTVPSSSLGTQTYICNVNHKPSNTKVDKRV heavy (part 2 of 2): not shown light: not shown | EC50 (read off the curve) [7]: ~0.6 µg/mL
 |  | 1.88 nM |  | bivalent monospecific parental LAG-3 antibody SEQ ID NO: 5 (antibody, IgG1, IgG1; not shown: IgG1 hinge) heavy (part 1 of 2): QVQLQESGPGLVKPSETLSLTCTVSDDSISDYYWSWIRQPPGKGLEWIGYIYYSGNTKYNPSLKNRVTISVDTSKSQFSLKLTSVTAADTAVYYCARIPLTGEFDYWAQGTLVTVSSASTKGPSVFPLAPSSKSTSGGTAALGCLVKDYFPEPVTVSWNSGALTSGVHTFPAVLQSSGLYSLSSVVTVPSSSLGTQTYICNVNHKPSNTKVDKRV heavy (part 2 of 2): not shown light: not shown | 
